Measured values as given in patent WO2016059602A2 (dated 2016).

B1: humanized 1D9 POTELLIGENT antibody (antibody, human IgG1, kappa, V domains shown)
VH: QVQLVQSGAEVKKPGASVKVSCKASGYTFTSYWMHWVRQAPGQGLEWMGVIDPSDGYSHYNQKFKGKVTLTVDTSISTAYMELSRLRSDDTAVYYCAGGLAGTLDYWGQGTTVTVSS
VL: DIQMTQSPSSLSASVGDRVTITCRSSQSIVHSSGNTYLQWFQQKPGKAPKLLIYKVSNRFSGVPSRFSGSGSGTDFTLTISSLQPEDFAVYYCFQGSHVPWTFGQGTKLEIKR
notes: also called humanized 1D9 H6L2 POTELLIGENT antibody; humanized POTELLIGENT antibody
B2: humanized 1D9 antibody (antibody, human IgG1, kappa, V domains shown)
VH: B1 VH
VL: B1 VL
B3: humanized 1D9 Fc disabled antibody (antibody, V domains shown)
VH: B1 VH
VL: B1 VL
notes: also called humanized 1D9 H6L2 Fc disabled antibody
B4: murine 1D9 antibody (M5.1D9.1F5) (antibody, V domains shown)
VH: QVQLQQPGAELVRPGTSVKLSCKASGYTFTSYWMHWVKQRPGQGLEWIGVIDPSDGYSHYNQKFKGKATLTVDTSSSTAYMQLSSLTSEDSAVYYCAGGLAGTLDYWGQGTTLTVSS
VL: DVLMTQTPLSLPVSLGDQASISCRSSQSIVHSSGNTYLQWFLQKPGQSPKLLISKVSNRFSGVPDRFSGSGSGTDFTLRISRVEAEDLGLYYCFQGSHVPWTFGGGTKLEIK
B5: murine 15D5 antibody (M5.15D5.2A1.1H10) (antibody, V domains shown)
VH: EFQLQQSGPELVKPGASVKISCKASGYSFTDYNMNWVKQNNGKSLEWIGGINPNYGTTVYNQKFKGKATLTVDQSSSTAYMQLVSLTSEDSAVYYCARMTTIVPFDYWGQGTTLTVSS
VL: DIQMTQTTFSLSASLGDRVTISCRASQDISNYLNWYQQKPDGTVKLLIYYTSTLHSGVPSRFSGSGSGTDYFLTIRNLEEEDIATYFCQQGYTLPWTFGGGTKLDIK

Tests used:
[1] = target: T1, full-length rat HER3 extracellular domain (ECD) (rat, UniProt Q62799 20-643); test: BIACORE, antibody captured on protein A, rat HER3 ECD as analyte, 25 C, 1:1 model
T1 construct: extracellular domain; also called Rat HER3 ECD
T1 sequence (Q62799 20-643): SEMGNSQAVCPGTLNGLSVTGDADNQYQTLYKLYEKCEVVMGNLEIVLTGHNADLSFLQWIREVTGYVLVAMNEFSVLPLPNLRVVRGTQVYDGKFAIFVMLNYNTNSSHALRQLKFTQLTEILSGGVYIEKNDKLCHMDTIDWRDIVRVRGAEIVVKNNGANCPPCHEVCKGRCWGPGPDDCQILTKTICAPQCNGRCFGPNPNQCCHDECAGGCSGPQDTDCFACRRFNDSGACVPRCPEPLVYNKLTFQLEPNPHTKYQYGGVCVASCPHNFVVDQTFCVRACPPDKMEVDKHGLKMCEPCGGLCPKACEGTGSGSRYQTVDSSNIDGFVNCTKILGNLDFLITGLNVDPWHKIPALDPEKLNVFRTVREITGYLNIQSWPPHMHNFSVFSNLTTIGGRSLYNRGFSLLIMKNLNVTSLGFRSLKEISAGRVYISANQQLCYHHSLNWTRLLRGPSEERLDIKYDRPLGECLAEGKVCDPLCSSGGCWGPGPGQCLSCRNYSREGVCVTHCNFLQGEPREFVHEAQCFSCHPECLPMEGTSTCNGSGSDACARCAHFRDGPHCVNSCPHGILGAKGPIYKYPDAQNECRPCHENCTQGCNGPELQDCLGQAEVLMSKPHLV

[2] = target: T2, full-length human HER3 extracellular domain (ECD) (human, UniProt P21860 20-643); test: BIACORE, antibody captured on protein A, HER3 ECD as analyte, 25 C, 1:1 model
T2 construct: also called human HER3 ECD; HER3 ECD full length
T2 sequence (P21860 20-643): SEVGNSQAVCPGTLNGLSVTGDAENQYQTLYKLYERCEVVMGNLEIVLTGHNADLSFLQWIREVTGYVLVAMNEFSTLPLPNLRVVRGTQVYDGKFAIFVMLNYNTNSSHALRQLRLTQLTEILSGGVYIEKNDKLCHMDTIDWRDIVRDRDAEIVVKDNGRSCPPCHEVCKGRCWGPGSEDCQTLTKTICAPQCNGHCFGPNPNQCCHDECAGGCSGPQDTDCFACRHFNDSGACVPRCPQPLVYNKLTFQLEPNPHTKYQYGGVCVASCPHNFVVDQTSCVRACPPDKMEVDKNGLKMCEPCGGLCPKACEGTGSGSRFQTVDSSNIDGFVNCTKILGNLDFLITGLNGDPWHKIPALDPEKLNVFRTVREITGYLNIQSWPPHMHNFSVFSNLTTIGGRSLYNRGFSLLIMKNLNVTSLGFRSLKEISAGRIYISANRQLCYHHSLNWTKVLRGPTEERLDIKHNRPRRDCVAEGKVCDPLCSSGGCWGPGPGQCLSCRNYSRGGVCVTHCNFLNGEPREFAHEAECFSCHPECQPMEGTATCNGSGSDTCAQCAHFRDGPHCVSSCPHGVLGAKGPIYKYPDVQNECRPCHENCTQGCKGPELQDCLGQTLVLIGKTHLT

human HER3 receptor = human HER3 receptor (human, UniProt P21860 20-1342); test: cell-based or functional assay
human HER3 receptor, sequence (P21860 20-1342 limits assumed): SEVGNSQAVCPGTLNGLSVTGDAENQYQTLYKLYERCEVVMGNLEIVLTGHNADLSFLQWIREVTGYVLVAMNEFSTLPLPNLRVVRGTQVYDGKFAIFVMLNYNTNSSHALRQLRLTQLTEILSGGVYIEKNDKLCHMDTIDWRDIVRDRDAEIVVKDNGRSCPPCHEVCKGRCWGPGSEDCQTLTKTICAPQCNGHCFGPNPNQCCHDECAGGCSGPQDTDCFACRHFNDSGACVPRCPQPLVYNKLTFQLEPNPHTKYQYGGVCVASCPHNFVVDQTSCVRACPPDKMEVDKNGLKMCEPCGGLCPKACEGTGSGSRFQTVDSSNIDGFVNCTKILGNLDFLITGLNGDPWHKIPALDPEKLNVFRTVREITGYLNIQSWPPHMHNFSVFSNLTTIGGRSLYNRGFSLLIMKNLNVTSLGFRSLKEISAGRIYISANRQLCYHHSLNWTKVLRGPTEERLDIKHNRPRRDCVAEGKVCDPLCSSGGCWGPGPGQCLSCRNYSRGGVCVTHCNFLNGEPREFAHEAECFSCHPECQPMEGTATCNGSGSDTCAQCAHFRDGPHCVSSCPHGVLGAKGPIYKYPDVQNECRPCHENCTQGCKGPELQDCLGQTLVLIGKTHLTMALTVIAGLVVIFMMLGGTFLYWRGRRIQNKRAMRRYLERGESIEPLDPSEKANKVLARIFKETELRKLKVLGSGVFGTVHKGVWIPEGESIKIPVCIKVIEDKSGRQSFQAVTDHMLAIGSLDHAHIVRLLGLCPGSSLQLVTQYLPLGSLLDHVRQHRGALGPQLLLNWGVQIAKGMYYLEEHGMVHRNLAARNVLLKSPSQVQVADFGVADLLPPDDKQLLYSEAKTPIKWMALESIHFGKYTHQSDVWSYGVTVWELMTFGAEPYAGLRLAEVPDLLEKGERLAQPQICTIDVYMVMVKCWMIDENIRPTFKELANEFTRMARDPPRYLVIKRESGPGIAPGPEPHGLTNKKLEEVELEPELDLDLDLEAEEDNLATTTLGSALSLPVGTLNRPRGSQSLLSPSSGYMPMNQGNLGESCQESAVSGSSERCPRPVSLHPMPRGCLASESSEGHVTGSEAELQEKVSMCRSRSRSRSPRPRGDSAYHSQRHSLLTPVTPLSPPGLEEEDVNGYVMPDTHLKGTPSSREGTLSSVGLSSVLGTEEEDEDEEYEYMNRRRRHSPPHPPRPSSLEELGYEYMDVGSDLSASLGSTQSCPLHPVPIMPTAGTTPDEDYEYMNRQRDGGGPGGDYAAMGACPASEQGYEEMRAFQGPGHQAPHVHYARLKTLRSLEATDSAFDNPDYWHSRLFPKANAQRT

Row | Binder | Kd [1] | koff [1] | kon [1] | Kd [2] | koff [2] | kon [2] | Phospho-HER3 ELISA IC50, heregulin induced HER3 phosphorylation, BxPC3 cells (human HER3 receptor) | Phospho-HER3 ELISA IC50, heregulin induced HER3 phosphorylation, CHL-1 cells (human HER3 receptor) | Phospho-HER3 ELISA IC50, heregulin induced HER3 phosphorylation, N87 cells (human HER3 receptor) | Phospho-HER3 ELISA IC50, heregulin induced HER3 phosphorylation, SK-BR-3 cells (human HER3 receptor) | IC50, ligand (EGF, betacellulin or heregulin) induced HER3 receptor phosphorylation, SK-BR-3 cells (human HER3 receptor) | Phospho-HER3 ELISA IC50, heregulin induced HER3 phosphorylation, BT-474 cells (human HER3 receptor) | Phospho-HER3 ELISA IC50, heregulin induced HER3 phosphorylation, MCF7 cells (human HER3 receptor)
1 | B1 | 3.37 nM | 0.0011 s⁻¹ | 326000 M⁻¹ s⁻¹ | 2.01 nM | 0.00223 s⁻¹ | 1.11e+06 M⁻¹ s⁻¹ | 0.0056 µg/mL | 0.0282 µg/mL | 0.0175 µg/mL | 0.0034 µg/mL | – | – | –
2 | B2 | – | – | – | – | – | – | 0.0116 µg/mL | 0.0365 µg/mL | 0.0218 µg/mL | 0.0036 µg/mL | – | – | –
3 | B3 | – | – | – | 4.49 nM | 0.00122 s⁻¹ | 271000 M⁻¹ s⁻¹ | 0.0107 µg/mL | 0.0399 µg/mL | 0.0297 µg/mL | 0.0044 µg/mL | – | – | –
4 | B4 | – | – | – | – | – | – | 0.0068 µg/mL | 0.0406 µg/mL | 0.0204 µg/mL | 0.0032 µg/mL | ~0.003 µg/mL | 0.0223 µg/mL | 0.0104 µg/mL
5 | B5 | – | – | – | – | – | – | 0.0541 µg/mL | 0.138 µg/mL | 0.0533 µg/mL | 0.0191 µg/mL | – | 0.12 µg/mL | 0.0593 µg/mL
